One block for each binder: values may come before it. Bridges are numbered along the chain shown (N, C = ends). Primed or numbered codes have the meaning given here. [ ]: non-standard residue; d: D form. 8x polyethylene glycol‑amino = O-(8x polyethylene glycol-amino)-tyrosine, SITE 45; 9x polyethylene glycol‑azido = O-(9x polyethylene glycol-azido)-tyrosine, SITE 42; Ygp″ = O-(8x polyethylene glycol-amino)-tyrosine; Yn3″ = O-(9x polyethylene glycol-azido)-tyrosine; hSer = N[C@@H](CCO)C(=O)O; Nle = CCCC[C@H](N)C(=O)O
Target: T1, IL-2 receptor βγ complex (human, UniProt P14784 27-551; P31785 23-369)
T1 sequence (looked up) 1: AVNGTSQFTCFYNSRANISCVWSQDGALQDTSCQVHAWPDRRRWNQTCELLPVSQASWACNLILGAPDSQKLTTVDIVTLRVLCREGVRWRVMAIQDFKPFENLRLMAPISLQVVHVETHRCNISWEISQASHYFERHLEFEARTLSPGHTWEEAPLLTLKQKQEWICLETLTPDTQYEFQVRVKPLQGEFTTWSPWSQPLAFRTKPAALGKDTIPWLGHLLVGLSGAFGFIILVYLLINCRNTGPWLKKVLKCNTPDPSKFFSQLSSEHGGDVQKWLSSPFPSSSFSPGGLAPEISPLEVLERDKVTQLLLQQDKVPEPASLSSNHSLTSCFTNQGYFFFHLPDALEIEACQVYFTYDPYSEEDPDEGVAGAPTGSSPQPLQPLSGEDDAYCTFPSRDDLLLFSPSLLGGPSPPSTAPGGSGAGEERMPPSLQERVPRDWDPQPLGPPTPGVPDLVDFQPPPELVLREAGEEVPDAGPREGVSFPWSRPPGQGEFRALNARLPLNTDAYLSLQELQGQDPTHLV
T1 sequence (looked up) 2: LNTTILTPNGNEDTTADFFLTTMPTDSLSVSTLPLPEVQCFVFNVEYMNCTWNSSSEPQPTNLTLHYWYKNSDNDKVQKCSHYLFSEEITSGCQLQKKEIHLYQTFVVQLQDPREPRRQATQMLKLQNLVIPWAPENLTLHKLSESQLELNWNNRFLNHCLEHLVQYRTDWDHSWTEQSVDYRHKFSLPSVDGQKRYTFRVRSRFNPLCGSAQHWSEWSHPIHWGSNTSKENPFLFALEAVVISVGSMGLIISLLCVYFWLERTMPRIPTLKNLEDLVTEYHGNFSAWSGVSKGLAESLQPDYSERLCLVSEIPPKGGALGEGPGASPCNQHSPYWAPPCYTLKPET
Test: cell-based or functional assay

Average EC50, pSTAT5 Assay in NK cells: 17.6 nM
B1: CMP-326, Matriptase cleaved molecule (ligand)
chain: APTSSSTKKTQLQLEHLLLDLQEILNGINNYKNPKLTR[Nle]L[hSer][Yn3″]KF[Ygp″][Nle]PKKATELKHLQCLEEELKPLEEVL[hSer]LAQSKNFHLRPRDLISNINVIVLELKGSETTF[hSer]CEYADETATIVEFLNRWITFSQSIISTLT
modifications: not fully specified; ends and bridges not checked; also: Lys9-Glu23 peptide bridge cut by matriptase, fragments left on side chains not given here

Average EC50, pSTAT5 Assay in NK cells: 0.85 nM
B2: CMP-327, MMP2 cleaved molecule (ligand)
chain: APTSSSTKKTQLQLEHLLLDLQEILNGINNYKNPKLTR[Nle]L[hSer][Yn3″]KF[Ygp″][Nle]PKKATELKHLQCLEEELKPLEEVL[hSer]LAQSKNFHLRPRDLISNINVIVLELKGSETTF[hSer]CEYADETATIVEFLNRWITFSQSIISTLT
modifications: ends and bridges not checked; also: Lys9-Glu23 peptide bridge cut by MMP2, fragments left on side chains not given here

Average EC50, pSTAT5 Assay in NK cells: 6.59 nM
B3: CMP-331 (ligand)
chain: APTSSSTKKTQLQLEHLLLDLQKILNGINNYKNPKLTR[Nle]L[hSer]Y(9x polyethylene glycol‑azido)KFY(8x polyethylene glycol‑amino)[Nle]PKKATELKHLQCLEEELKPLEEVL[hSer]LAQSKNFHLRPRDLISNINVIVLELKGSETTF[hSer]CEYADETATIVEFLNRWITFSQSIISTLT
modifications: bridge N-23; not fully specified (bridges)

Average EC50, pSTAT5 Assay in NK cells: 5.09 nM
B4: CMP-331, MMP2 cleaved molecule (ligand)
chain: APTSSSTKKTQLQLEHLLLDLQKILNGINNYKNPKLTR[Nle]L[hSer]Y(9x polyethylene glycol‑azido)KFY(8x polyethylene glycol‑amino)[Nle]PKKATELKHLQCLEEELKPLEEVL[hSer]LAQSKNFHLRPRDLISNINVIVLELKGSETTF[hSer]CEYADETATIVEFLNRWITFSQSIISTLT
modifications: not fully specified; also: N-terminus (pentanedioic acid-PEG9 linker) and Lys23 side chain attached to another sequence, what remains after MMP2 cleavage is not given here

Average EC50, pSTAT5 Assay in NK cells: 0.617 nM
B5: CMP-316, Matriptase cleaved molecule (ligand)
chain: APTSSSTKKTQLQLEHLLLDLQKILNGINNYKNPKLTR[Nle]L[hSer]Y(9x polyethylene glycol‑azido)KFY(8x polyethylene glycol‑amino)[Nle]PKKATELKHLQCLEEELKPLEEVL[hSer]LAQSKNFHLRPRDLISNINVIVLELKGSETTF[hSer]CEYADETATIVEFLNRWITFSQSIISTLT
modifications: also: matriptase cleavage product, not given here as a sequence, Lys23 side-chain attachment remnant unknown

Average EC50, pSTAT5 Assay in NK cells: 1.48 nM
B6: CMP-328, MMP2 cleaved molecule (ligand)
chain: APTSSSTKKTQLQLEHLLLDLQEILNGINNYKNPKLTR[Nle]L[hSer][Yn3″]KF[Ygp″][Nle]PKKATELKHLQCLEEELKPLEEVL[hSer]LAQSKNFHLRPRDLISNINVIVLELKGSETTF[hSer]CEYADETATIVEFLNRWITFSQSIISTLT
modifications: ends and bridges not checked; also: after MMP2 cleavage, remnants of the Lys9–Glu23 peptide linker not given here

Average EC50, pSTAT5 Assay in NK cells: 12.1 nM
B7: CMP-327, uPa cleaved molecule (ligand)
chain: APTSSSTKKTQLQLEHLLLDLQEILNGINNYKNPKLTR[Nle]L[hSer][Yn3″]KF[Ygp″][Nle]PKKATELKHLQCLEEELKPLEEVL[hSer]LAQSKNFHLRPRDLISNINVIVLELKGSETTF[hSer]CEYADETATIVEFLNRWITFSQSIISTLT
modifications: ends and bridges not checked; also: after uPa cleavage, remnants of the Lys9–Glu23 peptide linker not given here

Average EC50, pSTAT5 Assay in NK cells: 15.5 nM
B8: CMP-326 (ligand)
chain: APTSSSTKKTQLQLEHLLLDLQEILNGINNYKNPKLTR[Nle]L[hSer][Yn3″]KF[Ygp″][Nle]PKKATELKHLQCLEEELKPLEEVL[hSer]LAQSKNFHLRPRDLISNINVIVLELKGSETTF[hSer]CEYADETATIVEFLNRWITFSQSIISTLT
modifications: bridge 9-23; not fully specified (bridges); ends not checked; also: further groups not given here

Average EC50, pSTAT5 Assay in NK cells: 16.6 nM
B9: CMP-327 (ligand)
chain: APTSSSTKKTQLQLEHLLLDLQEILNGINNYKNPKLTR[Nle]L[hSer][Yn3″]KF[Ygp″][Nle]PKKATELKHLQCLEEELKPLEEVL[hSer]LAQSKNFHLRPRDLISNINVIVLELKGSETTF[hSer]CEYADETATIVEFLNRWITFSQSIISTLT
modifications: bridge 9-23; not fully specified (bridges); ends not checked; also: further groups not given here

Average EC50, pSTAT5 Assay in NK cells: 16 nM
B10: CMP-326, MMP2 cleaved molecule (ligand)
chain: APTSSSTKKTQLQLEHLLLDLQEILNGINNYKNPKLTR[Nle]L[hSer][Yn3″]KF[Ygp″][Nle]PKKATELKHLQCLEEELKPLEEVL[hSer]LAQSKNFHLRPRDLISNINVIVLELKGSETTF[hSer]CEYADETATIVEFLNRWITFSQSIISTLT
modifications: not fully specified; ends and bridges not checked; also: Lys9-Glu23 peptide bridge cut by MMP2, fragments left on side chains not given here

Average EC50, pSTAT5 Assay in NK cells: 18 nM
B11: CMP-326, uPa cleaved molecule (ligand)
chain: APTSSSTKKTQLQLEHLLLDLQEILNGINNYKNPKLTR[Nle]L[hSer][Yn3″]KF[Ygp″][Nle]PKKATELKHLQCLEEELKPLEEVL[hSer]LAQSKNFHLRPRDLISNINVIVLELKGSETTF[hSer]CEYADETATIVEFLNRWITFSQSIISTLT
modifications: not fully specified; ends and bridges not checked; also: Lys9-Glu23 peptide bridge cut by uPa, fragments left on side chains not given here

Average EC50, pSTAT5 Assay in NK cells: 17.3 nM
B12: CMP-327, Matriptase cleaved molecule (ligand)
chain: APTSSSTKKTQLQLEHLLLDLQEILNGINNYKNPKLTR[Nle]L[hSer][Yn3″]KF[Ygp″][Nle]PKKATELKHLQCLEEELKPLEEVL[hSer]LAQSKNFHLRPRDLISNINVIVLELKGSETTF[hSer]CEYADETATIVEFLNRWITFSQSIISTLT
modifications: ends and bridges not checked; also: Lys9-Glu23 peptide bridge cut by matriptase, fragments left on side chains not given here

Average EC50, pSTAT5 Assay in NK cells: 0.533 nM
B13: CMP-316, uPa cleaved molecule (ligand)
chain: APTSSSTKKTQLQLEHLLLDLQKILNGINNYKNPKLTR[Nle]L[hSer]Y(9x polyethylene glycol‑azido)KFY(8x polyethylene glycol‑amino)[Nle]PKKATELKHLQCLEEELKPLEEVL[hSer]LAQSKNFHLRPRDLISNINVIVLELKGSETTF[hSer]CEYADETATIVEFLNRWITFSQSIISTLT
modifications: also: uPa cleavage product, not given here as a sequence, Lys23 side-chain attachment remnant unknown

Average EC50, pSTAT5 Assay in NK cells: 0.46 nM
B14: CMP-316, MMP2 cleaved molecule (ligand)
chain: APTSSSTKKTQLQLEHLLLDLQKILNGINNYKNPKLTR[Nle]L[hSer]Y(9x polyethylene glycol‑azido)KFY(8x polyethylene glycol‑amino)[Nle]PKKATELKHLQCLEEELKPLEEVL[hSer]LAQSKNFHLRPRDLISNINVIVLELKGSETTF[hSer]CEYADETATIVEFLNRWITFSQSIISTLT
modifications: also: K23 side chain attached to another sequence, m93 after MMP2 cleavage, product not given here as a sequence

Average EC50, pSTAT5 Assay in NK cells: 9.23 nM
B15: CMP-328 (ligand)
chain: APTSSSTKKTQLQLEHLLLDLQEILNGINNYKNPKLTR[Nle]L[hSer][Yn3″]KF[Ygp″][Nle]PKKATELKHLQCLEEELKPLEEVL[hSer]LAQSKNFHLRPRDLISNINVIVLELKGSETTF[hSer]CEYADETATIVEFLNRWITFSQSIISTLT
modifications: bridge 9-23; not fully specified (bridges); ends not checked
